The target in test [1] is T1, hu PD1-ECD (human, UniProt Q15116 25-170).
T1 construct: SPR analyte; also called human PD1-ECD
Kind of test: SPR; row head 'Affinity KD 37° C.'; first of two numbers. The protocol:
(§1) The samples were injected for 20 seconds with a concentration of 10 nM and bound to the second flow cell.
(In general: Surface plasmon resonance follows binding to a sensor surface in real time, without labels.)

Test [2] deals with T2, biotinylated PD1-ECD-AviHis (human, UniProt Q15116 25-170, biotinylated).
T2 construct: also called huPD1; hu PD1; not shown: Avi-His tag
T2 sequence (Q15116 25-170): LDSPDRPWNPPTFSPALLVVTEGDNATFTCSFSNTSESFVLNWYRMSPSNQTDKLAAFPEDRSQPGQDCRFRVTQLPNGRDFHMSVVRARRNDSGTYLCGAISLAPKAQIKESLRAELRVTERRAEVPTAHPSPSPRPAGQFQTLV
The test can be described thus: ELISA (hu PD1, as described above). The protocol: After washing (3×90 μl/well with PBST-buffer) 25 μl/well goat-anti-human H+L-POD (JIR, JIR109-036-088)/Sheep-anti-mouse-POD (GE Healthcare; NA9310) was added in 1:2000/1:1000 dilution and incubated at RT for 1 h on shaker. After washing (3×90 μl/well with PBST-buffer) 25 μl/well TMB substrate (Roche Catalogue No. 11835033001) was added and incubated until OD 2-3. Measurement took place at 370/492 nm.
Background: ELISA stands for enzyme-linked immunosorbent assay.

Test [3] deals with T3, biotinylated cynoPD1-ECD-Biotin (cynomolgus, UniProt B0LAJ3 25-170, biotinylated; the site and any Avi or His tag are not stated in the passages shown).
T3 construct: also called cyPD1
T3 sequence (B0LAJ3 entry or part of it limits assumed): as the sequence (Q15116 25-170) above, with D2E, P10A, V19L, T35A, Q75R, T144A counted along it
The test can be described thus: ELISA on cyno PD1; row head 'cynomolgus crossreactivity (EC50 [nm])'.

In test [4] the target is T4, full-length human PD1 on cells (human, UniProt Q15116 25-288).
T4 construct: also called CHO-PD1
T4 sequence (Q15116 25-288 limits assumed): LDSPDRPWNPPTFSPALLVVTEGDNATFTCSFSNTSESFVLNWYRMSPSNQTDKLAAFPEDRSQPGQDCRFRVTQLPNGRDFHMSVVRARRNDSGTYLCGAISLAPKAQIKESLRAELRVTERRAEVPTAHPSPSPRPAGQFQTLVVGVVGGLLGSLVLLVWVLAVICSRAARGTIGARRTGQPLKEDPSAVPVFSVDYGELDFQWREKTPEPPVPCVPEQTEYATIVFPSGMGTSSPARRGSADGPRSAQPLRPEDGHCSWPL
The test can be described thus: cell ELISA on CHO-K1 cells expressing full-length human PD1. On the procedure:
(to avoid internalization). After washing carefully (1×90 μl/well PBST) cells were fixed by adding 30 μl/well 0.05% Glutaraldehyde (Sigma, Cat.No: G5882, 25%) diluted in 1×PBS-buffer and incubated for 10 min at RT. After washing (3×90 μl/well PBST) 25 μl/well secondary antibody was added for detection: goat-anti-human H+L-POD (JIR, JIR109-036-088)/Sheep-anti-mouse-POD (GE NA9310) followed by 1h incubation at RT on shaker. After washing (3×90 μl/well PBST) 25 μl/well TMB substrate solution (Roche 11835033001) was added and incubated until OD 1.0-2.0. Plates were measured at 370/492 nm.

The target of test [5] is T3, biotinylated cynoPD1-ECD-Biotin. The test can be described thus: ELISA on coated cynoPD1-ECD-Biotin.
The target in test [6] is T1, hu PD1-ECD. The test can be described thus: SPR; row head 'Affinity KD 37° C.'; second of two numbers, equal to the 25 °C value of Table 3.
The target of test [7] is T1, hu PD1-ECD. Kind of test: SPR (Biacore T200), antibody captured by anti-human IgG, hu PD1-ECD as analyte, 25 °C, 1:1 Langmuir fit. The protocol:
Therefore, an anti-human IgG was immobilized by amine coupling to the surface of a (Biacore) CM5 sensor chip. […] The sensor chip surface was regenerated after each analysis cycle. The equilibrium constant and kinetic rate constants were finally gained by fitting the data to a 1:1 langmuir interaction model.
as §1
Finally the double referenced data was fitted to a 1:1 Langmuir interaction model with the Biacore T200 Evaluation Software.

Test [8] concerns the target T2, biotinylated PD1-ECD-AviHis. Kind of test: ELISA on coated biotinylated PD1-ECD-AviHis.

T1 sequence (Q15116 25-170 limits assumed): as the sequence (Q15116 25-170) above

B1: PD1-0103-0313 (antibody, human IgG1, V domains shown)
VH: EVQLLESGGGLVQPGGSLRLSCAASGFSFSSYTMSWVRQAPGKGLEWVATISGGGRDIYYPDSVKGRFTISRDNSKNTLYLQMNSLRAEDTAVYYCVLLTGRVYFALDSWGQGTLVTVSS
VL: DVVMTQSPLSLPVTLGQPASISCRASESVDTSDNSFIHWYQQRPGQSPRLLIYRSSTLESGVPDRFSGSGSGTDFTLKISRVEAEDVGVYYCQQNYDVPWTFGQGTKVEIK
notes: Humanized; also called PD1-103-0313; PD-0103-0313
The Kd is a measure of binding affinity in units of concentration. The low end stands for a tighter complex, the high end for a looser complex. Usually EC50 stands for the concentration giving half of the maximal effect. A lower EC50 goes with an effect from little substance. The koff is a measure of how fast the partners let go of each other. Low values mean slow dissociation, high ones fast dissociation. Usually kon stands for the second-order rate constant of association. For B1, the Kd in test [1] was 1.9 nM; in test [6], 2.3 nM; in test [7], 2.3 nM. In addition, the EC50 in test [2] was determined as 0.07 nM; in test [3] it was 0.06 nM; in test [4], 0.0108 µg/mL; in test [5], 0.011 µg/mL; in test [8], 0.015 µg/mL. Besides, in test [7], the koff turned out to be 0.000367 s⁻¹. Further, in test [7], the kon turned out to be 160000 M⁻¹ s⁻¹.

B2: PD1-0103-0314 (antibody, human IgG1, V domains shown)
VH: EVQLLESGGGLVQPGGSLRLSCAASGFSFSSYTMSWVRQAPGKGLEWVATISGGGRDIYYPDSVKGRFTISRDNSKNTLYLQMNSLRAEDTAVYYCVLLTGRVYFALDSWGQGTLVTVSS
VL: EIVLTQSPATLSLSPGERATLSCRASESVDTSDNSFIHWYQQKPGQSPRLLIYRSSTLESGIPARFSGSGSGTDFTLTISSLEPEDFAVYYCQQNYDVPWTFGQGTKVEIKR
notes: Humanized; also called PD1-103-0314; PD-0103-0314
As to B2, the Kd in test [1] is 1.6 nM; in test [6] it was 1.5 nM; in test [7], 1.5 nM. For the same molecule, the EC50 came to 0.07 nM in test [2]; 0.05 nM in test [3]; 0.0077 µg/mL in test [4]; 0.0083 µg/mL in test [5]; 0.011 µg/mL in test [8]. In addition, the koff in test [7] was determined as 0.000279 s⁻¹. In addition, the kon in test [7] is 187000 M⁻¹ s⁻¹.

The values above are taken from patent US20220387586A1 (Hoffmann-La Roche, published 2022).
